Laboratory results from patent publication US20200165349A1 (Genmab, published 2020).

Key:
Human CD137 [1] = target: T1, Human CD137 (human, UniProt Q07011 24-255); assay: flow cytometry on FreeStyle HEK293 cells expressing CD137 (alanine scanning), 3 µg/mL A488-labeled antibody
T1 construct: also called hCD137 wt; 4-1BB
Experimental: The wild type CD137 and alanine mutants were expressed individually in FreeStyle HEK293 cells according to the manufacturer's instructions (Thermo Scientific). One day post transfection, the cells were harvested. […] Cells were incubated at room temperature for 30 min. Subsequently, cells were washed twice by centrifugation using 150-200 μL FACS buffer. Cells were suspended in 30 μL FACS buffer and stored at 4° C. until analysis by flow cytometry using an iQue screener.

Human PD-L1 = target: T2, Human PD-L1 (human, UniProt Q9NZQ7 19-290); assay: flow cytometry on MDA-MB-231 tumor cells
T2 construct: Amino acids 1-18 are stated to be a predicted signal peptide; also called CD274; B7H1
T2 sequence (Q9NZQ7 19-290): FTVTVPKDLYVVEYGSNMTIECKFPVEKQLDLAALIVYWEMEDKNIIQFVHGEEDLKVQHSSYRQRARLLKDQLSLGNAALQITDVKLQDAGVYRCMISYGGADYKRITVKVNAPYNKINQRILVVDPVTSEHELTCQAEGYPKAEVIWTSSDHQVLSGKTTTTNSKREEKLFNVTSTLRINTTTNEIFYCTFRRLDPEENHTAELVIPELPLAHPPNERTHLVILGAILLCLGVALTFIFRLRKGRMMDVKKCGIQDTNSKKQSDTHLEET
Experimental: After washing twice in FACS buffer, cells were incubated with secondary antibody at 4° C. for 30 min. […] Next, cells were washed twice in FACS buffer, re-suspended in 20 μL FACS buffer and analyzed on an iQue screener (Intellicyt Corporation, USA). Binding curves were analyzed using non-linear regression (sigmoidal dose-response with variable slope) using GraphPad Prism V75.04 software (GraphPad Software, San Diego, Calif., USA).

Human CD137 [2] = target: T1, Human CD137; assay: cell-based or functional assay
Human CD137 [3] = target: T1, Human CD137; assay: cell-based or functional assay; remark: listed apart in the source

Binder | binding result (Human CD137 [1]) | binding result (Human PD-L1) | also measured
b12-FEAL×CD137-009-FEAR-A488 (bispecific antibody, not shown: large carriers) heavy 1: QVQLVQSGAEVKKPGASVKVSCQASGYRFSNFVIHWVRQAPGQRFEWMGWINPYNGNKEFSAKFQDRVTFTADTSANTAYMELRSLRSADTAVYYCARVGPYSWDDSPQDNYYMDVWGKGTTVIVSSASTKGPSVFPLAPSSKSTSGGTAALGCLVKDYFPEPVTVSWNSGALTSGVHTFPAVLQSSGLYSLSSVVTVPSSSLGTQTYICNVNHKPSNTKVDKRVEPKSCDKTHTCPPCPAPEFEGGPSVFLFPPKPKDTLMISRTPEVTCVVVAVSHEDPEVKFNWYVDGVEVHNAKTKPREEQYNSTYRVVSVLTVLHQDWLNGKEYKCKVSNKALPAPIEKTISKAKGQPREPQVYTLPPSREEMTKNQVSLTCLVKGFYPSDIAVEWESNGQPENNYKTTPPVLDSDGSFLLYSKLTVDKSRWQQGNVFSCSVMHEALHNHYTQKSLSLSPGK light 1: EIVLTQSPGTLSLSPGERATFSCRSSHSIRSRRVAWYQHKPGQAPRLVIHGVSNRASGISDRFSGSGSGTDFTLTITRVEPEDFALYYCQVYGASSYTFGQGTKLERK heavy 2: QSLEESGGRLVTPGTPLTLTCTVSGFSLNDYWMSWVRQAPGKGLEWIGYIDVGGSLYYASWAKGRFTISRTSTTVDLKMTSLTTEDTATYFCARGGLTYGFDLWGPGTLVTVSSASTKGPSVFPLAPSSKSTSGGTAALGCLVKDYFPEPVTVSWNSGALTSGVHTFPAVLQSSGLYSLSSVVTVPSSSLGTQTYICNVNHKPSNTKVDKRVEPKSCDKTHTCPPCPAPEFEGGPSVFLFPPKPKDTLMISRTPEVTCVVVAVSHEDPEVKFNWYVDGVEVHNAKTKPREEQYNSTYRVVSVLTVLHQDWLNGKEYKCKVSNKALPAPIEKTISKAKGQPREPQVYTLPPSREEMTKNQVSLTCLVKGFYPSDIAVEWESNGQPENNYKTTPPVLDSDGSFFLYSRLTVDKSRWQQGNVFSCSVMHEALHNHYTQKSLSLSPGK light 2: DIVMTQTPASVSEPVGGTVTINCQASEDISSYLAWYQQKPGQRPKRLIYGASDLASGVPSRFSASGSGTEYALTISDLESADAATYYCHYYATISGLGVAFGGGTEVVVKRTVAAPSVFIFPPSDEQLKSGTASVVCLLNNFYPREAKVQWKVDNALQSGNSQESVTEQDSKDSTYSLSSTLTLSKADYEKHKVYACEVTHQGLSSPVTKSFNRGEC | binds | – | –
PD-L1-547-FEAR (antibody, human IgG1, lambda, V domains shown, Human IgG1 lambda with L234F, L235E, D265A and K409R) VH: EVQLLEPGGGLVQPGGSLRLSCEASGSTFSTYAMSWVRQAPGKGLEWVSGFSGSGGFTFYADSVRGRFTISRDSSKNTLFLQMSSLRAEDTAVYYCAIPARGYNYGSFQHWGQGTLVTVSS VL: SYVLTQPPSVSVAPGQTARITCGGNNIGSKSVHWYQQKPGQAPVLVVYDDNDRPSGLPERFSGSNSGNTATLTISRVEAGDEADYYCQVWDSSSDHVVFGGGTKLTVLG | – | binds | –
CD137-005-FEAR-A488 (antibody, V domains shown, Conjugated with Alexa Fluor 488) VH: QSVEESGGRLVTPGTPLTLTCTASGFTISDFHVTWVRQAPGKGLEWIGTIITSASTTAYATWARGRFTISKSSTTVNLKIVSPTTEDTATYFCARSTYTDTSGYYFDFWGQGTLVTVSS VL: AQVLTQTASPVSAAVGGTVIINCQSSQSIYNGNRLSWYQQKPGQPPKLLIYSASTLASGVSSRFKGSGSGTQFTLAISDVQSDDAATYYCLGSYDCDSADCFAFGGGTEVVVER | binds | – | –
PD-L1-547-FEAL×CD137-009-HC7LC2-FEAR (bispecific antibody, human IgG1, kappa, lambda) heavy 1: EVQLLEPGGGLVQPGGSLRLSCEASGSTFSTYAMSWVRQAPGKGLEWVSGFSGSGGFTFYADSVRGRFTISRDSSKNTLFLQMSSLRAEDTAVYYCAIPARGYNYGSFQHWGQGTLVTVSSASTKGPSVFPLAPSSKSTSGGTAALGCLVKDYFPEPVTVSWNSGALTSGVHTFPAVLQSSGLYSLSSVVTVPSSSLGTQTYICNVNHKPSNTKVDKRVEPKSCDKTHTCPPCPAPEFEGGPSVFLFPPKPKDTLMISRTPEVTCVVVAVSHEDPEVKFNWYVDGVEVHNAKTKPREEQYNSTYRVVSVLTVLHQDWLNGKEYKCKVSNKALPAPIEKTISKAKGQPREPQVYTLPPSREEMTKNQVSLTCLVKGFYPSDIAVEWESNGQPENNYKTTPPVLDSDGSFLLYSKLTVDKSRWQQGNVFSCSVMHEALHNHYTQKSLSLSPGK light 1: SYVLTQPPSVSVAPGQTARITCGGNNIGSKSVHWYQQKPGQAPVLVVYDDNDRPSGLPERFSGSNSGNTATLTISRVEAGDEADYYCQVWDSSSDHVVFGGGTKLTVLGQPKAAPSVTLFPPSSEELQANKATLVCLISDFYPGAVTVAWKADSSPVKAGVETTTPSKQSNNKYAASSYLSLTPEQWKSHRSYSCQVTHEGSTVEKTVAPTECS heavy 2: EVQLVESGGGLVQPGRSLRLSCTASGFSLNDYWMSWVRQAPGKGLEWVGYIDVGGSLYYAASVKGRFTISRDDSKSIAYLQMNSLKTEDTAVYYCARGGLTYGFDLWGQGTLVTVSSASTKGPSVFPLAPSSKSTSGGTAALGCLVKDYFPEPVTVSWNSGALTSGVHTFPAVLQSSGLYSLSSVVTVPSSSLGTQTYICNVNHKPSNTKVDKRVEPKSCDKTHTCPPCPAPEFEGGPSVFLFPPKPKDTLMISRTPEVTCVVVAVSHEDPEVKFNWYVDGVEVHNAKTKPREEQYNSTYRVVSVLTVLHQDWLNGKEYKCKVSNKALPAPIEKTISKAKGQPREPQVYTLPPSREEMTKNQVSLTCLVKGFYPSDIAVEWESNGQPENNYKTTPPVLDSDGSFFLYSRLTVDKSRWQQGNVFSCSVMHEALHNHYTQKSLSLSPGK light 2: DIVMTQSPSSLSASVGDRVTITCQASEDISSYLAWYQQKPGKAPKRLIYGASDLASGVPSRFSASGSGTDYTFTISSLQPEDIATYYCHYYATISGLGVAFGGGTKVEIKRTVAAPSVFIFPPSDEQLKSGTASVVCLLNNFYPREAKVQWKVDNALQSGNSQESVTEQDSKDSTYSLSSTLTLSKADYEKHKVYACEVTHQGLSSPVTKSFNRGEC | – | – | EC50 value, CD8+ T-cell expansion, donor 1, 0.03 µg/ml anti-CD3 (Human CD137 [2]): 12.2 ng/mL; EC50 value, CD8+ T-cell expansion, donor 2, 0.09 µg/ml anti-CD3 (Human CD137 [2]): 6.89 ng/mL
CD137-009-FEAL×PD-L1-547-FEAR (bispecific antibody, human IgG1, kappa, lambda) heavy 1: QSLEESGGRLVTPGTPLTLTCTVSGFSLNDYWMSWVRQAPGKGLEWIGYIDVGGSLYYASWAKGRFTISRTSTTVDLKMTSLTTEDTATYFCARGGLTYGFDLWGPGTLVTVSSASTKGPSVFPLAPSSKSTSGGTAALGCLVKDYFPEPVTVSWNSGALTSGVHTFPAVLQSSGLYSLSSVVTVPSSSLGTQTYICNVNHKPSNTKVDKRVEPKSCDKTHTCPPCPAPEFEGGPSVFLFPPKPKDTLMISRTPEVTCVVVAVSHEDPEVKFNWYVDGVEVHNAKTKPREEQYNSTYRVVSVLTVLHQDWLNGKEYKCKVSNKALPAPIEKTISKAKGQPREPQVYTLPPSREEMTKNQVSLTCLVKGFYPSDIAVEWESNGQPENNYKTTPPVLDSDGSFLLYSKLTVDKSRWQQGNVFSCSVMHEALHNHYTQKSLSLSPGK light 1: DIVMTQTPASVSEPVGGTVTINCQASEDISSYLAWYQQKPGQRPKRLIYGASDLASGVPSRFSASGSGTEYALTISDLESADAATYYCHYYATISGLGVAFGGGTEVVVKRTVAAPSVFIFPPSDEQLKSGTASVVCLLNNFYPREAKVQWKVDNALQSGNSQESVTEQDSKDSTYSLSSTLTLSKADYEKHKVYACEVTHQGLSSPVTKSFNRGEC heavy 2: EVQLLEPGGGLVQPGGSLRLSCEASGSTFSTYAMSWVRQAPGKGLEWVSGFSGSGGFTFYADSVRGRFTISRDSSKNTLFLQMSSLRAEDTAVYYCAIPARGYNYGSFQHWGQGTLVTVSSASTKGPSVFPLAPSSKSTSGGTAALGCLVKDYFPEPVTVSWNSGALTSGVHTFPAVLQSSGLYSLSSVVTVPSSSLGTQTYICNVNHKPSNTKVDKRVEPKSCDKTHTCPPCPAPEFEGGPSVFLFPPKPKDTLMISRTPEVTCVVVAVSHEDPEVKFNWYVDGVEVHNAKTKPREEQYNSTYRVVSVLTVLHQDWLNGKEYKCKVSNKALPAPIEKTISKAKGQPREPQVYTLPPSREEMTKNQVSLTCLVKGFYPSDIAVEWESNGQPENNYKTTPPVLDSDGSFFLYSRLTVDKSRWQQGNVFSCSVMHEALHNHYTQKSLSLSPGK light 2: SYVLTQPPSVSVAPGQTARITCGGNNIGSKSVHWYQQKPGQAPVLVVYDDNDRPSGLPERFSGSNSGNTATLTISRVEAGDEADYYCQVWDSSSDHVVFGGGTKLTVLGQPKAAPSVTLFPPSSEELQANKATLVCLISDFYPGAVTVAWKADSSPVKAGVETTTPSKQSNNKYAASSYLSLTPEQWKSHRSYSCQVTHEGSTVEKTVAPTECS | – | – | EC50 of the induction of antigen-specific T cell proliferation, '% divided cells' (Human CD137 [3]): 3.49 ng/mL; EC50 of the induction of antigen-specific T cell proliferation, 'proliferation index' (Human CD137 [3]): 5.39 ng/mL
b12-FEAL×PD-L1-547-FEAR (bispecific antibody, not shown: large carriers, also called monovalent PD-L1 antibody; monovalent PD-L1-control antibody) heavy 1: QVQLVQSGAEVKKPGASVKVSCQASGYRFSNFVIHWVRQAPGQRFEWMGWINPYNGNKEFSAKFQDRVTFTADTSANTAYMELRSLRSADTAVYYCARVGPYSWDDSPQDNYYMDVWGKGTTVIVSSASTKGPSVFPLAPSSKSTSGGTAALGCLVKDYFPEPVTVSWNSGALTSGVHTFPAVLQSSGLYSLSSVVTVPSSSLGTQTYICNVNHKPSNTKVDKRVEPKSCDKTHTCPPCPAPEFEGGPSVFLFPPKPKDTLMISRTPEVTCVVVAVSHEDPEVKFNWYVDGVEVHNAKTKPREEQYNSTYRVVSVLTVLHQDWLNGKEYKCKVSNKALPAPIEKTISKAKGQPREPQVYTLPPSREEMTKNQVSLTCLVKGFYPSDIAVEWESNGQPENNYKTTPPVLDSDGSFLLYSKLTVDKSRWQQGNVFSCSVMHEALHNHYTQKSLSLSPGK light 1: EIVLTQSPGTLSLSPGERATFSCRSSHSIRSRRVAWYQHKPGQAPRLVIHGVSNRASGISDRFSGSGSGTDFTLTITRVEPEDFALYYCQVYGASSYTFGQGTKLERK heavy 2: EVQLLEPGGGLVQPGGSLRLSCEASGSTFSTYAMSWVRQAPGKGLEWVSGFSGSGGFTFYADSVRGRFTISRDSSKNTLFLQMSSLRAEDTAVYYCAIPARGYNYGSFQHWGQGTLVTVSSASTKGPSVFPLAPSSKSTSGGTAALGCLVKDYFPEPVTVSWNSGALTSGVHTFPAVLQSSGLYSLSSVVTVPSSSLGTQTYICNVNHKPSNTKVDKRVEPKSCDKTHTCPPCPAPEFEGGPSVFLFPPKPKDTLMISRTPEVTCVVVAVSHEDPEVKFNWYVDGVEVHNAKTKPREEQYNSTYRVVSVLTVLHQDWLNGKEYKCKVSNKALPAPIEKTISKAKGQPREPQVYTLPPSREEMTKNQVSLTCLVKGFYPSDIAVEWESNGQPENNYKTTPPVLDSDGSFFLYSRLTVDKSRWQQGNVFSCSVMHEALHNHYTQKSLSLSPGK light 2: SYVLTQPPSVSVAPGQTARITCGGNNIGSKSVHWYQQKPGQAPVLVVYDDNDRPSGLPERFSGSNSGNTATLTISRVEAGDEADYYCQVWDSSSDHVVFGGGTKLTVLGQPKAAPSVTLFPPSSEELQANKATLVCLISDFYPGAVTVAWKADSSPVKAGVETTTPSKQSNNKYAASSYLSLTPEQWKSHRSYSCQVTHEGSTVEKTVAPTECS | – | binds | –
